Assay results published in paper PMC11154709, “4S-fluorination of ProB29 in insulin lispro slows fibril formation” (The Journal of Biological Chemistry, 2024).

Experiment: Far-UV circular dichroism (secondary structure)
Format: physicochemical
Details: 60 μM; statement in discussion of CD spectra
Description: Figure 2 Biological activity and CD spectroscopy of lispro variants.A, lispros were injected subcutaneously into diabetic mice, and blood glucose was measured over time after injection. The data presented here represent the mean ± SD of 3 to 6 biological replicates. B–E, far-UV circular dichroism spectra (60 μM lispro in […] phosphate buffer, pH 8.0). […] 4R-F, 4R-fluoroproline; 4S-F, 4S-fluoroproline.
The secondary structure of each insulin lispro variant was probed by circular dichroism spectroscopy. […] All lispro samples were further analyzed by analytical ultracentrifugation (Fig. S3). To determine the dissociation constant of each variant, we fit the data to a reversible monomer-dimer equilibrium ([29]). […]
Circular dichroism spectroscopy:
Equilibrium measurements: The circular dichroism spectra of insulin or lispro samples (60 µM in
100 mM sodium phosphate, pH 8.0) were measured at 25°C in 1 mm quartz cuvettes using a step
size of 0.5 nm and averaging time of 1 s on an Aviv Model 430 Circular Dichroism
Spectrophotom eter. A reference buffer spectrum was subtracted from each sample spectrum. […]
Analytical ultracentrifugation: […]

human insulin: 5.8 kDa peptide hormone composed of two disulfide-linked chains (A and B)
oligomeric state at 60 μM: exists as a dimer at 60 μM
